# Experimental data published in paper doi:10.1101/2020.01.02.893016 (bioRxiv, 2020).
# T1: ROOTY (RTY) protein, wild type, C-S lyase (Arabidopsis thaliana, UniProt Q9SIV0 1-462)
# T1 sequence (looked up): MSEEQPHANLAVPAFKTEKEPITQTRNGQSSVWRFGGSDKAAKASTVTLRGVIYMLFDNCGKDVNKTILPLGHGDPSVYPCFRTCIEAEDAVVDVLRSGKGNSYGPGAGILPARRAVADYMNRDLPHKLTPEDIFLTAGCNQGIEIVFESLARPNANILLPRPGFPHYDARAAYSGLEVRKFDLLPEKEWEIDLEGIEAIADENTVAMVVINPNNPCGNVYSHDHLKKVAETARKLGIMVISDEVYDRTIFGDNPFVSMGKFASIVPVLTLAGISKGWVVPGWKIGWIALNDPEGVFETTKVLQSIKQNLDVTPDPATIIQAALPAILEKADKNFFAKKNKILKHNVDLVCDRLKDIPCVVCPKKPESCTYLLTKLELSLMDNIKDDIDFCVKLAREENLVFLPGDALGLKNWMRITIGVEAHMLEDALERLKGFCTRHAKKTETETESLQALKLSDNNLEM
# Molecular target: T1, ROOTY (RTY) protein, wild type, C-S …
# Test: two-hybrid
binder,measurement,value
"ROOTY (RTY) protein, D315N mutant (TG8B allele) (enzyme, Arabidopsis thaliana, UniProt Q9SIV0 1-462, looked up) MSEEQPHANLAVPAFKTEKEPITQTRNGQSSVWRFGGSDKAAKASTVTLRGVIYMLFDNCGKDVNKTILPLGHGDPSVYPCFRTCIEAEDAVVDVLRSGKGNSYGPGAGILPARRAVADYMNRDLPHKLTPEDIFLTAGCNQGIEIVFESLARPNANILLPRPGFPHYDARAAYSGLEVRKFDLLPEKEWEIDLEGIEAIADENTVAMVVINPNNPCGNVYSHDHLKKVAETARKLGIMVISDEVYDRTIFGDNPFVSMGKFASIVPVLTLAGISKGWVVPGWKIGWIALNDPEGVFETTKVLQSIKQNLDVTPNPATIIQAALPAILEKADKNFFAKKNKILKHNVDLVCDRLKDIPCVVCPKKPESCTYLLTKLELSLMDNIKDDIDFCVKLAREENLVFLPGDALGLKNWMRITIGVEAHMLEDALERLKGFCTRHAKKTETETESLQALKLSDNNLEM",beta-galactosidase activity relative to WT-WT,~80%
